Measured values reported in PMC2582960, “A Structural Model of the Staphylococcus aureus ClfA–Fibrinogen Interaction Opens New Avenues for the Design of Anti-Staphylococcal Therapeutics” (PLoS Pathogens, 2008).

B1: unnamed (parent)
chain 1: GEGQQHHLGGAKQAGDV
chain 2: GTDITNQLTNVTVGIDSGTTVYPHQAGYVKLNYGFSVPNSAVKGDTFKITVPKELNLNGVTSTAKVPPIMAGDQVLANGVIDSDGNVIYTFTDYVNTKDDVKATLTMPAYIDPENVKKTGNVTLATGIGSTTANKTVLVDYEKYGKFYNLSIKGTIDQIDKTNNTYRQTIYVNPSGDNVIAPVLTGNLKPNTDSNALIDQQNTSIKVYKVDNAADLSESYFVNPENFEDVTNSVNITFPNPNQYKVEFNTPDDQITTPYIVVVNGHIDPNSKGDLALRSTLYGYNSNIIWRSMSWDNEVAFNNGSGSGDGIDKPVVP

Variants of: B1
Assay: solid-phase competition (inhibition) assay
Conditions: with partner chain of the complex shown;; read off a plot

| Variant | response (Absorbance (405 nm)) |
| --- | --- |
| chain 1 GEGQQHHLGGSKQAGDV | 0.11 |
| chain 1 GEGQQHHLGGAKQSGDV | 0.29 |
| chain 1 GAGQQHHLGGAKQAGDV | 0.21 |
| chain 1 AEGQQHHLGGAKQAGDV | 0.25 |
| chain 1 GEAQQHHLGGAKQAGDV | 0.2 |
| chain 1 GEGQQHHLAGAKQAGDV | 0.21 |
| chain 1 GEGQQHHLGAAKQAGDV | 0.25 |
| chain 1 GEGQQHHLGGAKQAADV | 0.28 |
| chain 1 GEGQQAHLGGAKQAGDV | 0.31 |
| chain 1 GEGQQHALGGAKQAGDV | 0.28 |
| chain 1 GEGQQHHLGGAAQAGDV | 0.23 |
| chain 1 GEGQQHHAGGAKQAGDV | 0.15 |
| chain 1 GEGAQHHLGGAKQAGDV | 0.2 |
| chain 1 GEGQAHHLGGAKQAGDV | 0.23 |
| chain 1 GEGQQHHLGGAKAAGDV | 0.29 |
| chain 1 GEGQQHHLGGAKQAGDA | 0.13 |
